The supplement of paper PMC9112550, “Optimization of the antimicrobial peptide Bac7 by deep mutational scanning” (BMC Biology, 2022)

Test system: Escherichia coli TOP10
Assay: shrunken log2 fold change of peptide-encoding DNA abundance (4.5 h post-induction vs induction); higher = less antimicrobial activity (less host growth inhibition)
Conditions: time post-induction: 4.5 h; library: site-saturation at positions 5, 18, 19, 20
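Further: peptides expressed intracellularly from a pBAD plasmid library in pooled LB shake-flask culture, induced with 0.3% L-arabinose, DNA abundance read by NGS, three biological replicates, DESeq2 with apeglm shrinkage.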

Row | Sequence | shrunken log2 fold change
1 | RRIRSRPPRLPRPRPRPRSTPRP | 0.0523
2 | RRIRARPPRLPRPRPRPDDQPRP | 1.41
3 | RRIRMRPPRLPRPRPRPSDAPRP | 0.617
4 | RRIRHRPPRLPRPRPRPWFIPRP | -0.775
5 | RRIRKRPPRLPRPRPRPMDLPRP | 0.198
6 | RRIRKRPPRLPRPRPRPEHFPRP | 0.0394
7 | RRIRWRPPRLPRPRPRPPHSPRP | 0.218
8 | RRIRHRPPRLPRPRPRPYILPRP | -0.576
9 | RRIRPRPPRLPRPRPRPEPIPRP | 0.26
10 | RRIRGRPPRLPRPRPRPVWMPRP | -0.117
11 | RRIRSRPPRLPRPRPRPYVIPRP | -0.292
12 | RRIRCRPPRLPRPRPRPQKPPRP | 0.0368
13 | RRIRRRPPRLPRPRPRPLLMPRP | 0.395
14 | RRIRGRPPRLPRPRPRPTRGPRP | 0.808
15 | RRIRHRPPRLPRPRPRPFVGPRP | -0.31
16 | RRIRDRPPRLPRPRPRPFLGPRP | -0.0161
17 | RRIRDRPPRLPRPRPRPGCRPRP | 0.398
18 | RRIRDRPPRLPRPRPRPQDEPRP | -0.166
19 | RRIRDRPPRLPRPRPRPAYSPRP | 0.0295
20 | RRIRWRPPRLPRPRPRPSKRPRP | 0.149
21 | RRIRARPPRLPRPRPRPQEQPRP | 0.0884
22 | RRIRMRPPRLPRPRPRPTQPPRP | 0.176
23 | RRIRVRPPRLPRPRPRPKYQPRP | -0.876

Row | Sequence | shrunken log2 fold change
24 | RRIRCRPPRLPRPRPRPRHHPRP | -0.088
25 | RRIRLRPPRLPRPRPRPSHSPRP | -0.775
26 | RRIRRRPPRLPRPRPRPQGVPRP | -0.159
27 | RRIRQRPPRLPRPRPRPRDFPRP | 0.984
28 | RRIRFRPPRLPRPRPRPGIAPRP | -0.15
29 | RRIRRRPPRLPRPRPRPTFKPRP | 0.214
30 | RRIRNRPPRLPRPRPRPMSEPRP | -0.0254
31 | RRIRMRPPRLPRPRPRPLMYPRP | -0.295
32 | RRIRTRPPRLPRPRPRPVMCPRP | -0.222
33 | RRIRKRPPRLPRPRPRPYSCPRP | -0.0242
34 | RRIRWRPPRLPRPRPRPPICPRP | -0.0702
35 | RRIRDRPPRLPRPRPRPDMLPRP | 0.00888
36 | RRIRKRPPRLPRPRPRPTEFPRP | 0.00591
37 | RRIRGRPPRLPRPRPRPGLFPRP | 1.01
38 | RRIRGRPPRLPRPRPRPCHCPRP | -0.017
39 | RRIRTRPPRLPRPRPRPWFLPRP | -0.401
40 | RRIRKRPPRLPRPRPRPWIMPRP | -0.132
41 | RRIRPRPPRLPRPRPRPKPNPRP | 0.356
42 | RRIRNRPPRLPRPRPRPWPAPRP | 0.0494
43 | RRIRCRPPRLPRPRPRPPYIPRP | -0.305
44 | RRIRMRPPRLPRPRPRPVTNPRP | 0.0903
45 | RRIRIRPPRLPRPRPRPGSDPRP | -0.209
46 | RRIRRRPPRLPRPRPRPLFDPRP | 0.136

Row | Sequence | shrunken log2 fold change
47 | RRIRMRPPRLPRPRPRPQSKPRP | 0.0671
48 | RRIRQRPPRLPRPRPRPHKRPRP | -0.218
49 | RRIRSRPPRLPRPRPRPMWIPRP | -0.0694
50 | RRIRRRPPRLPRPRPRPEFHPRP | 0.0566
51 | RRIRDRPPRLPRPRPRPYTTPRP | -0.556
52 | RRIRLRPPRLPRPRPRPFVQPRP | -0.284
53 | RRIRDRPPRLPRPRPRPTPSPRP | 0.368
54 | RRIRFRPPRLPRPRPRPNDCPRP | -0.415
55 | RRIRTRPPRLPRPRPRPWILPRP | -0.23
56 | RRIRWRPPRLPRPRPRPHWYPRP | 2.17
57 | RRIRFRPPRLPRPRPRPLIGPRP | -0.106
58 | RRIRSRPPRLPRPRPRPSKVPRP | -0.575
59 | RRIRYRPPRLPRPRPRPPVYPRP | -0.406
60 | RRIRARPPRLPRPRPRPTEIPRP | -0.0477
61 | RRIRWRPPRLPRPRPRPWRCPRP | 0.144
62 | RRIRTRPPRLPRPRPRPTMSPRP | -0.163
63 | RRIRARPPRLPRPRPRPMDPPRP | 0.0606
64 | RRIRIRPPRLPRPRPRPQSHPRP | -0.383
65 | RRIRMRPPRLPRPRPRPFQHPRP | 0.0658
66 | RRIRHRPPRLPRPRPRPDWGPRP | 0.0592
67 | RRIRRRPPRLPRPRPRPNLDPRP | -0.152
68 | RRIRHRPPRLPRPRPRPLQPPRP | 0.157
69 | RRIRHRPPRLPRPRPRPVFYPRP | -0.751

Row | Sequence | shrunken log2 fold change
70 | RRIRARPPRLPRPRPRPWLDPRP | 0.0658
71 | RRIRDRPPRLPRPRPRPFLSPRP | 0.0846
72 | RRIRLRPPRLPRPRPRPWQHPRP | -0.319
73 | RRIRVRPPRLPRPRPRPLLSPRP | -0.08
74 | RRIRMRPPRLPRPRPRPGTPPRP | 1.02
75 | RRIRNRPPRLPRPRPRPHRWPRP | 0.0666
76 | RRIRHRPPRLPRPRPRPRNCPRP | -0.112
77 | RRIRFRPPRLPRPRPRPYIIPRP | -0.395
78 | RRIRDRPPRLPRPRPRPMVGPRP | 0.564
79 | RRIRPRPPRLPRPRPRPDNDPRP | 0.0931
80 | RRIRMRPPRLPRPRPRPQRTPRP | 1.56
81 | RRIRPRPPRLPRPRPRPTNNPRP | -0.329
82 | RRIRMRPPRLPRPRPRPNGGPRP | 0.112
83 | RRIRERPPRLPRPRPRPHNSPRP | -0.156
84 | RRIRYRPPRLPRPRPRPLGNPRP | 0.0523
85 | RRIRLRPPRLPRPRPRPLLIPRP | -0.514
86 | RRIRPRPPRLPRPRPRPSLEPRP | 0.0508
87 | RRIRRRPPRLPRPRPRPNWGPRP | 0.412
88 | RRIRHRPPRLPRPRPRPDASPRP | 0.221
89 | RRIRLRPPRLPRPRPRPHAAPRP | -0.343
90 | RRIRLRPPRLPRPRPRPKDWPRP | 0.467
91 | RRIRTRPPRLPRPRPRPQPIPRP | 0.0337
